Earlier results in paper PMC12207913.

Molecular target: E6AP (Homo sapiens) (UniProt Q05086)
Assay: SPR

Chain of UniProt Q05086 (Q05086 whole entry): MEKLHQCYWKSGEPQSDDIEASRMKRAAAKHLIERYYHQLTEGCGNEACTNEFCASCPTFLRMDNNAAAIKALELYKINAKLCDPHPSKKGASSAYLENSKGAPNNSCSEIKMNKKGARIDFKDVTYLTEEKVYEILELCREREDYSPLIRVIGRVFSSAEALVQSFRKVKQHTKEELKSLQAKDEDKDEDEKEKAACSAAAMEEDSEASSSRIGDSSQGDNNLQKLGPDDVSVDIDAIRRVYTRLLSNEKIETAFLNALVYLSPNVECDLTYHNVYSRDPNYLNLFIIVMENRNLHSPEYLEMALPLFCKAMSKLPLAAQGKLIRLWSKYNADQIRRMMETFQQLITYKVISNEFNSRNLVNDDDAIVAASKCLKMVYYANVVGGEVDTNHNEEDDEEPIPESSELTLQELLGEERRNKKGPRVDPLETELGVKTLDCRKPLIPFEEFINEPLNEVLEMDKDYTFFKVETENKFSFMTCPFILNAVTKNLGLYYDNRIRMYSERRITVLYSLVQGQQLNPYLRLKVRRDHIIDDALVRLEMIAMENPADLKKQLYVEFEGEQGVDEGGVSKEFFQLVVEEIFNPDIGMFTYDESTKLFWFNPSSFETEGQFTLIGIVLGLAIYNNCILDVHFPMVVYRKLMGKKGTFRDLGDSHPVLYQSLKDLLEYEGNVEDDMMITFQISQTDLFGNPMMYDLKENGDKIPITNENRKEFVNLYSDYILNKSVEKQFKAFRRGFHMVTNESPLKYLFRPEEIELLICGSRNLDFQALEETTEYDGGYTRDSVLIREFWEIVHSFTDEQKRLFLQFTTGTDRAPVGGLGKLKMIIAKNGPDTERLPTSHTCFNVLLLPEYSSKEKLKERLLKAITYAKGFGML

HPV16 E6 (from UniProt P03126)
Kd: 144 pM
